Measurements taken from patent US20170253670A1 (Hoffmann-La Roche, published 2017).

Key:
[1] = molecular target: T1, human FolR1 monovalent Fc fusion, biotinylated (human, UniProt P15328 25-233, biotin on C-terminal Avi-tag ; biotin on the C-terminal Avi-tag of the Fc-knob chain (tag not in the letters)); experiment: SPR ProteOn, Fab analyte, antigen on chip
T1 construct: ECD linked to hinge of Fc-knob, co-expressed with Fc-hole; also called huFolR1; huFolR1-Fc; not shown: hinge-Fc(knob)-Avi-tag fused to the ECD, and the co-expressed Fc(hole) chain
Experimental: Immobilization of antigens (ligand): Recombinant antigens were diluted with PBST (10 mM phosphate, 150 mM sodium chloride pH 7.4, 0.005% Tween 20) to 10 μg/ml, then injected at 30 μl/minute in vertical orientation. Injection of analytes: For ‘one-shot kinetics’ measurements, injection direction was changed to horizontal orientation, two-fold dilution series of purified Fab (varying concentration ranges) were injected simultaneously along separate channels 1-5, with association times of 200 s, and dissociation times of 600 s. Buffer (PBST) was injected along the sixth channel to provide an “in-line” blank for referencing. Association rate constants (kₒₙ) and dissociation rate constants (koff) were calculated using a simple one-to-one Langmuir binding model in ProteOn Manager v3.1 software by simultaneously fitting the association and dissociation sensorgrams. The equilibrium dissociation constant (KD) was calculated as the ratio koff/kₒₙ.

[2] = molecular target: T2, recombinant murine BCMA Fc(kih) (murine, UniProt O88472 2-49, biotinylated at the avi-tag of the Fc knob chain (not in the letters)); experiment: SPR Biacore, binder captured via anti-Fab, BCMA-Fc analyte
T2 construct: also called muBCMA Fc(kih); not shown: human IgG1 hinge-Fc(knob)-avi and the unfused Fc(hole) chain
T2 chain: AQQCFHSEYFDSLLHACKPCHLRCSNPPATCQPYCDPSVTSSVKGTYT

[3] = molecular target: T3, recombinant human BCMA Fc(kih) (human, UniProt Q02223 4-53, biotin on avi-tag where coupled to SA chip ; biotin on the avi-tag of the Fc-knob chain where coupled to the SA chip (tag not in the letters)); experiment: as above
T3 construct: also called huBCMA Fc(kih); huBCMA; not shown: human IgG1 hinge-Fc(knob)-avi fused to the ECD, and the unfused Fc(hole) chain
T3 chain: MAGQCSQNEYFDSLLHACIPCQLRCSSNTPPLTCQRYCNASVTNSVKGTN

[4] = molecular target: T3, recombinant human BCMA Fc(kih); experiment: SPR Biacore, bivalent avidity, BCMA-Fc on chip (Experiment 2)
Experimental: (§1) Assessment of binding of anti-BCMA antibodies to recombinant BCMA by surface plasmon resonance (SPR) as follow. All SPR experiments were performed on a Biacore T200 at 25° C. with HBS-EP as running buffer (0.01 M HEPES pH 7.4, 0.15 M NaCl, 3 mM EDTA, 0.005% Surfactant P20, Biacore, Freiburg/Germany). The avidity of the interaction between anti-BCMA antibodies and recombinant BCMA Fc(kih) (human, cynomolgus and murine) was determined (Tables 38-40). Biotinylated recombinant human, cynomolgus and murine BCMA Fc(kih) were directly coupled on a SA chip following instructions (Biacore, Freiburg/Germany). The immobilization level ranged from 80 to 120 RU. […] The dissociation was monitored for 180 seconds. Bulk refractive index differences were corrected for by subtracting the response obtained on the reference flow cell. Here, the anti-BCMA antibodies were flown over an empty surface previously activated and deactivated as described in the standard amine coupling kit. Apparent kinetic constants were derived using the Biacore T200 Evaluation Software (v 1.0, Biacore AB, Uppsala/Sweden), to fit rate equations for 1:1 Langmuir binding by numerical integration, despite the bivalency of the interaction for comparison purposes.

[5] = molecular target: T3, recombinant human BCMA Fc(kih); experiment: SPR Biacore, bivalent avidity, BCMA-Fc on chip (Experiment 3)
Experimental: as §1

[6] = molecular target: T4, Fc fused huTACI-R (human, UniProt O14836 2-166, limits assumed); experiment: SPR (Biacore T200), Fc fused huTACI-R on CM5 chip, IgG as analyte, reference-subtracted
T4 construct: also called human TACI receptor
T4 sequence (looked up): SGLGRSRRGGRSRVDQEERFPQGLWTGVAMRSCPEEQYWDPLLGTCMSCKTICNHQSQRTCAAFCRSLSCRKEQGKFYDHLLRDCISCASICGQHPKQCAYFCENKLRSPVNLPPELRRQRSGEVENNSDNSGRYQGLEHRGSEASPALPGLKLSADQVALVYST

[7] = molecular target: T2, recombinant murine BCMA Fc(kih); experiment: SPR Biacore, bivalent avidity, BCMA-Fc on chip (Experiment 2)
Experimental: as §1

[8] = molecular target: T2, recombinant murine BCMA Fc(kih); experiment: SPR Biacore, bivalent avidity, BCMA-Fc on chip (Experiment 3)
Experimental: as §1

[9] = molecular target: T2, recombinant murine BCMA Fc(kih); experiment: SPR Biacore, bivalent avidity, BCMA-Fc on chip
Experimental: as §1

[10] = molecular target: T3, recombinant human BCMA Fc(kih); experiment: SPR Biacore, bivalent avidity, BCMA-Fc on chip
Experimental: as §1

[11] = molecular target: T5, human FolR1 on cells (HeLa, SKOV3, HT-29, transfected HEK) (human, UniProt P15328 25-234); experiment: flow cytometry on HeLa cells, fluorescently labeled anti-human secondary antibody
T5 construct: whole, on cells

[12] = molecular target: T5, human FolR1 on cells (HeLa, SKOV3, …); experiment: flow cytometry, HeLa cells
Experimental: Target cells as indicated were harvested with Cell Dissociation Buffer, washed with PBS and resuspended in FACS buffer. The antibody staining was performed in a 96well round bottom plate. Therefore 200′000 cells were seeded per well. The plate was centrifuged for 4 min at 400 g and the supernatant was removed. The test antibodies were diluted in FACS buffer and 20 μl of the antibody solution were added to the cells for 30 min at 4° C.

[13] = molecular target: T5, human FolR1 on cells (HeLa, SKOV3, …); experiment: cell-based or functional assay
[14] = molecular target: T5, human FolR1 on cells (HeLa, SKOV3, …); experiment: cell-based or functional assay; remark: listed apart in the source

T5 sequence (P15328 25-234): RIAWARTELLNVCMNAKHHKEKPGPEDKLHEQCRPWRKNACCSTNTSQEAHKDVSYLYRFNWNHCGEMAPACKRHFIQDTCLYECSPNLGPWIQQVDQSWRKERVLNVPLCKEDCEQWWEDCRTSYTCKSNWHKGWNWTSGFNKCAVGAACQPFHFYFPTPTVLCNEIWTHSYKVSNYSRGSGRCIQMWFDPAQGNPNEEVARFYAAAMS
T1 sequence (P15328 25-233 limits assumed): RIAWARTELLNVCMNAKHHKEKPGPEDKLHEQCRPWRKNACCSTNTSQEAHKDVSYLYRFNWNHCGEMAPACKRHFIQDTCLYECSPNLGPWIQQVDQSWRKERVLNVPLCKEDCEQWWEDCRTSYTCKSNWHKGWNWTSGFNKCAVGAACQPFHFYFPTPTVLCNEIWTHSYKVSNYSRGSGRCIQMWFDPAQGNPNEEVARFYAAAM

B1: 15H7 Fab (Fab, V domains shown)
VH: QVQLVQSGAEVKKPGASVKVSCKASGYTFTSYYMHWVRQAPGQGLEWMGIINPSGGSTSYAQKFQGRVTMTRDTSTSTVYMELSSLRSEDTAVYYCARNYYLFSTSFDYWGQGTLVTVSS
VL: QAVVTQEPSLTVSPGGTVTLTCGSSTGAVTTSNYANWVQEKPGQAFRGLIGGTNKRAPGTPARFSGSLLGGKAALTLSGAQPEDEAEYYCALWYSNLWVFGGGTKLTVL
notes: as m35
**Q.** For B1, which Kd [1] is on record?
**A.** The Kd was 13.4 nM.

B2: pSCHLI373 anti-BCMA IgG (antibody, V domains shown)
VH: EVQLVESGGGLVKPGGSLRLSCAASGFSFSNSWMNWVRQAPGKGLEWVGTIRQKTYGGTTDYAAPVKGRFTISRDDSKNTLYLQMNSLKTEDTAVYYCTTGGLFGYWDYWGQGTLVTVSS
VL: B1 VL
**Q.** With B2 as the binder, how does the Kd [2] read?
**A.** The Kd was 724 nM.

**Q.** And the Kd [3]?
**A.** The Kd was 135 nM.

**Q.** What about the Kd [4] of the same binder?
**A.** Its Kd is 23 nM.

**Q.** What about the Kd [5] of the same binder?
**A.** Its Kd is 12.1 nM.

B3: pSCHLI372 anti-BCMA IgG (antibody, V domains shown)
VH: EVQLVESGGGLVKPGGSLRLSCAASGFTFSNSGMIWVRQAPGKGLEWVGHIRSKTDGGTTDYAAPVKGRFTISRDDSKNTLYLQMNSLKTEDTAVYYCTTGGSGSFDYWGQGTLVTVSS
VL: B1 VL
notes: also called pSCHLI372 IgG; anti-BCMA IgG pSCHLI372
**Q.** B3 was tested. Which Kd [2] did it give?
**A.** The Kd was 1310 nM.

**Q.** What about the Kd [3] of the same binder?
**A.** Its Kd is 114 nM.

**Q.** Does B3 bind [6]?
**A.** Result: no binding

**Q.** And the Kd [7]?
**A.** Its Kd is 42.7 nM.

**Q.** And the Kd [4]?
**A.** The Kd was 8.5 nM.

**Q.** What about the Kd [8] of the same binder?
**A.** Its Kd is 25.7 nM.

**Q.** And the Kd [5]?
**A.** The Kd was 3.6 nM.

B4: pSCHLI333 anti-BCMA IgG (antibody, V domains shown)
VH: QVQLVQSGAEVKKPGASVKVSCKASGYMFSSFGMSWVRQAPGQGLEWMGWIYPVGQGTWYAQKFQGRVTMTRDTSTSTVYMELSSLRSEDTAVYYCARVSYPPSHFDYWGQGTLVTVSS
VL: B1 VL
**Q.** What does the source list for B4?
**A.** Kd [9]: 19.6 nM; Kd [10]: 2.5 nM

B5: 14E4 IgG (antibody, V domains shown)
VH: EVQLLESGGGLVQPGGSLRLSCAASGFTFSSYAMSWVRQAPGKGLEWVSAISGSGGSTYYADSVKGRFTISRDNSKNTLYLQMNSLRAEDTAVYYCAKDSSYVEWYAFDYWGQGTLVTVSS
VL: EIVLTQSPGTLSLSPGERATLSCRASQSVSSSYLAWYQQKPGQAPRLLIYGASSRATGIPDRFSGSGSGTDSTLTISRLEPEDFAVYYCQQPTSSPITFGQGTKVEIK
notes: human IgG1
**Q.** Does B5 bind [11]?
**A.** Result: no binding (tested: 50 µg/ml)

B6: 9D11 FolR1 TCB 1+1 head-to-tail (crossfab) (bispecific antibody, V domains shown)
VH: QVQLVQSGAEVKKPGASVKVSCKASGYTFTSYYMHWVRQAPGQGLEWMGIINPSGGPTSYAQKFQGRVTMTRDTSTSTVYMELSSLRSEDTAVYYCARGDFAWLDYWGQGTLVTVSS
VL: not shown
notes: 1+1 head-to-tail with CD3 CrossFab on the same arm
**Q.** What does the source list for B6?
**A.** EC50 [12]: 44.2 nM; EC50 killing 24 h (pM), SKOV3 [13]: 4.73 pM

B7: 9D11 TCB S100aA (bispecific antibody, human IgG1, kappa, L234A L235A)
heavy 1: not shown
heavy 2: QVQLVQSGAEVKKPGASVKVSCKASGYTFTSYYMHWVRQAPGQGLEWMGIINPSGGPTSYAQKFQGRVTMTRDTSTSTVYMELSSLRSEDTAVYYCARGDFAWLDYWGQGTLVTVSSASTKGPSVFPLAPSSKSTSGGTAALGCLVKDYFPEPVTVSWNSGALTSGVHTFPAVLQSSGLYSLSSVVTVPSSSLGTQTYICNVNHKPSNTKVDKKVEPKSCDKTHTCPPCPAPEAAGGPSVFLFPPKPKDTLMISRTPEVTCVVVDVSHEDPEVKFNWYVDGVEVHNAKTKPREEQYNSTYRVVSVLTVLHQDWLNGKEYKCKVSNKALGAPIEKTISKAKGQPREPQVCTLPPSRDELTKNQVSLSCAVKGFYPSDIAVEWESNGQPENNYKTTPPVLDSDGSFFLVSKLTVDKSRWQQGNVFSCSVMHEALHNHYTQKSLSLSPGK
light 1: not shown
light 2: QAVVTQEPSLTVSPGGTVTLTCGSSTGAVTTSNYANWVQEKPGQAFRGLIGGTNKRAPGTPARFSGSLLGGKAALTLSGAQPEDEAEYYCALWYSNLWVFGGGTKLTVLSSASTKGPSVFPLAPSSKSTSGGTAALGCLVKDYFPEPVTVSWNSGALTSGVHTFPAVLQSSGLYSLSSVVTVPSSSLGTQTYICNVNHKPSNTKVDKKVEPKSC
**Q.** B7 was tested. Which “EC50 killing 24 h, SKov-3” value [14] did it give?
**A.** The value was 0.00194 nM.
